Molecular target: HilD^Q39E,N44D,H95L mutant (recombinant) (Salmonella enterica serovar Typhimurium strain 14028s)
Assay: mass photometry

Substance “HilD^Q39E,N44D,H95L mutant (recombinant) (natural protein)” has a stoichiometry N of 2.
